Laboratory results as given in patent US20210332142A1 (Genentech, published 2021).

Tests used:
[1] = target: T1, recombinant cyno Tie2 extracellular domain (cynomolgus monkey, UniProt Q02763 23-748 (human entry)); assay: SPR, IgG captured, 37C
T1 construct: also called Recombinant cyno Tie2 ECD; cy Tie2
T1 chain: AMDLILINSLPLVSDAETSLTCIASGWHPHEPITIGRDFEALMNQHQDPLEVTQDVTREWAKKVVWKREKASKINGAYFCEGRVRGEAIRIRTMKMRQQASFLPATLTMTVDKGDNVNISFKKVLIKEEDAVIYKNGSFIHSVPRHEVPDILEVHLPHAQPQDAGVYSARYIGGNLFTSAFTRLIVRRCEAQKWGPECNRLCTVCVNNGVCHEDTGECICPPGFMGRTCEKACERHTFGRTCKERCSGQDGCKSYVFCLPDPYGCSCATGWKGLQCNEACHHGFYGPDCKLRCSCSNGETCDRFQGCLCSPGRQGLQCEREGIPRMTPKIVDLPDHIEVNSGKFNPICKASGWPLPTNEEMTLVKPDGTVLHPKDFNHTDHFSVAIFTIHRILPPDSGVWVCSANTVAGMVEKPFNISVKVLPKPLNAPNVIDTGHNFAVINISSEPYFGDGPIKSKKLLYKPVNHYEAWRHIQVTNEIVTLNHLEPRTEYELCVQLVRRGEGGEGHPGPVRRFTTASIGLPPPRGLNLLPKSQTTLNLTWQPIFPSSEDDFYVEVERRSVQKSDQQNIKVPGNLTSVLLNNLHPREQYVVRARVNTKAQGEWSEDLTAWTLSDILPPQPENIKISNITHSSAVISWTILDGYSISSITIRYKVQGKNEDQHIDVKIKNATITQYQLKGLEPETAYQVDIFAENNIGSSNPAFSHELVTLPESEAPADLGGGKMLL
Protocol: A human antibody capture chip was prepared using a Series S CM5 chip (GE Life Sciences), a human antibody capture kit (GE Life Sciences) and an amine coupling kit (GE Life Sciences). Antibodies diluted to 5 μg/ml in running buffer (10 mM HEPES, 150 mM NaCl, 0.05% Tween 20, 1 mM EDTA, pH 7.4) were non-covalently captured using a contact time of 20 seconds and a flow rate of 10 μl/minute. Binding to 300 nM and 1500 nM recombinant Tie2 was analyzed at 37° C. using a Single Cycle Kinetics method with a contact time of 60 seconds, a dissociation time of 120 seconds and a flow rate of 50 μl/min. Between cycles, the surface was regenerated by a 30 second injection of 3M MgCl₂ at a flow rate of 30 μl/min. Values for antibody capture levels and analyte binding levels were obtained from the Report Point Table (Biacore Evaluation Software v3.0, GE Life Sciences). […] Table 16: Experiment A; Table 17: Experiment B.

omalizumab = target: T2, omalizumab; assay: phage ELISA
T2 construct: Used as irrelevant coated protein; also called irrelevant Fc-containing protein; not shown: the constant regions

[2] = target: T3, recombinant human Tie2 extracellular domain (human, UniProt Q02763 23-748); assay: SPR multi-cycle kinetics, IgG captured, kinetic analysis
T3 construct: whole entry named; also called Recombinant human Tie2 ECD; hu Tie2
Protocol: Binding to 300 nM and 1500 nM recombinant Tie2 was analyzed at 37° C. using a Single Cycle Kinetics method with a contact time of 60 seconds, a dissociation time of 120 seconds and a flow rate of 50 μl/min. Between cycles, the surface was regenerated by a 30 second injection of 3M MgCl₂ at a flow rate of 30 μl/min. Values for antibody capture levels and analyte binding levels were obtained from the Report Point Table (Biacore Evaluation Software v3.0, GE Life Sciences). […] Table 16: Experiment A; Table 17: Experiment B.
Binding to recombinant human and cyno Tie2 was analyzed using a high performance multi-cycle kinetics format with a contact time of 60 seconds, a dissociation time of 60 seconds, a flow rate of 100 μl/minute and Tie2 concentrations of 5 μM, 2.5 μM, 1.25 μM, 625 nM, 313 nM and 156 nM. Tie2 concentrations of 5 μM, 2.5 μM and 1.25 μM were injected twice. Results were analyzed using Biacore T200 Evaluation Software v3.0 (GE Life Sciences). Results from all three surface densities were analyzed together using the 1:1 Binding model with multiple Rmax and the RI parameter set to zero.

human Tie1 = target: T4, human Tie1 (human, UniProt P35590 22-759); assay: ELISA: human Tie1 immobilized, serial dilutions of IgG, anti-huFc-HRP
T4 construct: extracellular domain
T4 sequence (looked up): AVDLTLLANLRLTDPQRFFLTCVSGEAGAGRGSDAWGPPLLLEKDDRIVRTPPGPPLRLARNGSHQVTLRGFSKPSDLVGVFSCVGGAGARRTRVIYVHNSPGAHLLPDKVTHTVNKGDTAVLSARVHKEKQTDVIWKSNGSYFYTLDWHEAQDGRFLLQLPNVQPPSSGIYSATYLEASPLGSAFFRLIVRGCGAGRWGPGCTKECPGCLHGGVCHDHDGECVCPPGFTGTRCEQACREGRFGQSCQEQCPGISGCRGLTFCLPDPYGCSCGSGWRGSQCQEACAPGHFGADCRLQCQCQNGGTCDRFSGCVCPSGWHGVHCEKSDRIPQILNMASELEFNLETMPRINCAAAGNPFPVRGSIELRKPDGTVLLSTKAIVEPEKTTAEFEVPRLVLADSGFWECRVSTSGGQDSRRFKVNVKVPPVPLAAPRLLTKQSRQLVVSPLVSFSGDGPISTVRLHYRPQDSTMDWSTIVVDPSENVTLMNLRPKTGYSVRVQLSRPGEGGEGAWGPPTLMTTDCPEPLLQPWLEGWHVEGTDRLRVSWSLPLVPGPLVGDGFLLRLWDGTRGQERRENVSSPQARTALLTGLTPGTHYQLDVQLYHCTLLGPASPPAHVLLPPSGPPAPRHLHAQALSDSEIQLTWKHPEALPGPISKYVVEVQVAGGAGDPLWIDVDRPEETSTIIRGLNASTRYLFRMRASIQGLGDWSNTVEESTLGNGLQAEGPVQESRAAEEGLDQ
From the text: (§1) Plates were washed and detected with anti-huFC-conjugated HRP secondary antibody using the methods above.
The binding ELISA was also used with immobilized Tie1 protein to assess Tie1 binding.

mouse Tie2 ECD5 = target: T5, mouse Tie2 ECD5 (mouse, UniProt Q02858 23-442, limits assumed); assay: ELISA: mouse Tie2 ECD5 construct immobilized, serial dilutions of IgG, anti-huFc-HRP
T5 construct: domain: ECD5 (Ig1, Ig2, EGF and Ig3 domains); also called mECD5
From the text: as §1

Normalized Binding Signal, 300 nM [1]: 0.08
binding result (omalizumab): no binding
koff [2]: 0.45 s⁻¹
kon [2]: 180000 M⁻¹ s⁻¹
binding result (human Tie1): no binding (tested: 200 nM)
binding result (mouse Tie2 ECD5): binds
B1: Tie2.1 (antibody, human IgG1, V domains shown)
VH: EVQLVESGGGLVQPGGSLRLSCAASGFTFSNTDISWVRQAPGKGLEWVGRISPSDGNTYYADSVKGRFTISADTSKNTAYLQMNSLRAEDTAVYYCARRTRWASWAMDYWGQGTLVTVSS
VL: DIQMTQSPSSLSASVGDRVTITCRASQDVSTAVAWYQQKPGKAPKLLIYSASFLYSGVPSRFSGSGSGTDFTLTISSLQPEDFATYYCQQSYTTPPTFGQGTKVEIKR
notes: human IgG1 in all later assays; also called Ab1; Tie2.1.M100c
